Here are results for 3 molecules from PMC8397269 (Science Advances, 2021).

In one test the target is His-IRIF 53BP1 (human, UniProt Q12888 1222-1659). Nature of the test: pull-down.
For test [1], the target named is T1, His-lamin B1, full length (human, UniProt P20700 1-586).
T1 sequence (looked up): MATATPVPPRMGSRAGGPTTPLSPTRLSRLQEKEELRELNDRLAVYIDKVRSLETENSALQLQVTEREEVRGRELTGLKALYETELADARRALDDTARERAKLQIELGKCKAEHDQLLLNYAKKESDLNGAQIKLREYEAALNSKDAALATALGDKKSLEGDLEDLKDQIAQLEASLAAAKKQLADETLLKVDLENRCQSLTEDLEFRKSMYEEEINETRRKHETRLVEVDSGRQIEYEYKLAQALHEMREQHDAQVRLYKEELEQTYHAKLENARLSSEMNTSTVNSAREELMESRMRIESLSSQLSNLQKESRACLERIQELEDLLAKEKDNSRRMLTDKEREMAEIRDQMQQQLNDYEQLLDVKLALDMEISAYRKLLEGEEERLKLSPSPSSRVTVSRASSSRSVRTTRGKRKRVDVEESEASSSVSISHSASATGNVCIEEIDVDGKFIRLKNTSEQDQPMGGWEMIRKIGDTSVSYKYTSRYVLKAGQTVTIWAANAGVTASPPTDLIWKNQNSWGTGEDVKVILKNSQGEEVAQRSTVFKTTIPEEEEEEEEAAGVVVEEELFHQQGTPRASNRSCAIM
Briefly: pull-down.

B1: GST-Nterm lamin B1 (domain or fragment, human, UniProt P20700 1-424, looked up)
chain: MATATPVPPRMGSRAGGPTTPLSPTRLSRLQEKEELRELNDRLAVYIDKVRSLETENSALQLQVTEREEVRGRELTGLKALYETELADARRALDDTARERAKLQIELGKCKAEHDQLLLNYAKKESDLNGAQIKLREYEAALNSKDAALATALGDKKSLEGDLEDLKDQIAQLEASLAAAKKQLADETLLKVDLENRCQSLTEDLEFRKSMYEEEINETRRKHETRLVEVDSGRQIEYEYKLAQALHEMREQHDAQVRLYKEELEQTYHAKLENARLSSEMNTSTVNSAREELMESRMRIESLSSQLSNLQKESRACLERIQELEDLLAKEKDNSRRMLTDKEREMAEIRDQMQQQLNDYEQLLDVKLALDMEISAYRKLLEGEEERLKLSPSPSSRVTVSRASSSRSVRTTRGKRKRVDVEES
With B1, the binding result with His-IRIF 53BP1 is reported as “binds”.

B2: GST-Head-Coil1 lamin B1 (domain or fragment, human, UniProt P20700 1-243, looked up)
chain: MATATPVPPRMGSRAGGPTTPLSPTRLSRLQEKEELRELNDRLAVYIDKVRSLETENSALQLQVTEREEVRGRELTGLKALYETELADARRALDDTARERAKLQIELGKCKAEHDQLLLNYAKKESDLNGAQIKLREYEAALNSKDAALATALGDKKSLEGDLEDLKDQIAQLEASLAAAKKQLADETLLKVDLENRCQSLTEDLEFRKSMYEEEINETRRKHETRLVEVDSGRQIEYEYKLA
Turning to B2, in the test with His-IRIF 53BP1, the binding result was “binds”.

B3: GST-53BP1 IRIF (domain or fragment, human, UniProt Q12888 1222-1659, looked up)
chain: EEEFDMPQPPHGHVLHRHMRTIREVRTLVTRVITDVYYVDGTEVERKVTEETEEPIVECQECETEVSPSQTGGSSGDLGDISSFSSKASSLHRTSSGTSLSAMHSSGSSGKGAGPLRGKTSGTEPADFALPSSRGGPGKLSPRKGVSQTGTPVCEEDGDAGLGIRQGGKAPVTPRGRGRRGRPPSRTTGTRETAVPGPLGIEDISPNLSPDDKSFSRVVPRVPDSTRRTDVGAGALRRSDSPEIPFQAAAGPSDGLDASSPGNSFVGLRVVAKWSSNGYFYSGKITRDVGAGKYKLLFDDGYECDVLGKDILLCDPIPLDTEVTALSEDEYFSAGVVKGHRKESGELYYSIEKEGQRKWYKRMAVILSLEQGNRLREQYGLGPYEAVTPLTKAADISLDNLVEGKRKRRSNVSSPATPTASSSSSTTPTRKITESPRA
As to B3, in test [1], the binding result is given as “binds”.
